According to US6962971B2, “Chemokines and methods for inducing the differentiation of fibroblasts to myofibroblasts” (The Regents of the University of California, priority 2001, dated 2005):
Entries after “also recorded” stand apart in the source; their conditions may differ.

What was measured:
α-SMA [1] = test: Immunoblotting for α-SMA in fibroblast extracts; format: cell-based, chicken; settings: 750 ng/ml; versus untreated or C-peptide treated cells
Procedure: Plates of fibroblasts were treated as described previously, with 750 ng/ml cCAF or 2.5 ng/ml TGFβ. To block TGFβ, or cCAF activity, anti-cCAF (3 μl) or anti-TGFβ (1 μl) antibody was pre-incubated in 1 ml media for 1 hr at room temperature before being added to cells. After 4 days of treatment, protein extracts were prepared in 1 ml 150 mM RIPA buffer containing protease inhibitors. Protein concentrations were determined using the DC protein assay kit and samples were adjusted to contain equal amounts of protein. SDS-PAGE was performed on 7.5% separating Doucet gels (Doucet and Trifaro, 1988). Protein transfer to nitrocellulose was performed using a wet-transfer apparatus (Bio-Rad) at 100V for 45 min. The membranes were blocked for 1 hr in 5% milk in TTBS and then incubated overnight at 4° C. in mouse anti-α-SMA, to a final IgG concentration of 5 μg/ml, in 1% milk in TTBS. The membranes were washed 3 times for 20 min each with TTBS, incubated in anti-mouse HRP at 1:10,000 in 1% milk for 1hr and washed as above, and the bands visualized using the ECL.

α-SMA [2] = test: Immunostaining for α-SMA in fibroblast cultures and collagen gel sections; format: cell-based, chicken
Procedure: Plates of fibroblasts were treated with cCAF as described previously. After 4 days, the cells were rinsed with PBS, fixed in 4% paraformaldehyde, permeabilized with 0.15% Triton X-100 and incubated with PBS containing 0.1M glycine for 10 min. Cells were blocked for 30 min with 10% goat serum in PBS, incubated with mouse anti-α-SMA, to a final IgG concentration of 20 μg/ml, in 1% BSA/PBS for 1hr at room temperature (RT), and washed three times with 0.1% BSA/PBS for 10 min each. The cells were then incubated in goat anti-mouse FITC or sheep anti-mouse Texas Red (1:100) in 1% BSA/PBS for 1 hr at RT, washed three times for 10 min with 0.1% BSA in PBS and mounted with Vectashield. Collagen gels were rinsed with PBS, fixed in 4% paraformaldehyde for 2 hr, washed three times 30 min each with PBS, and incubated for an additional 30 min in PBS containing 0.1M glycine. This treatment was followed by incubation at 4° C. overnight in 15% sucrose and then incubated under the same conditions in 30% sucrose. After a brief rinse with PBS, the gels were frozen in OCT, sections prepared and collected on gelatin-coated slides, rinsed with PBS, fixed in 4% paraformaldehyde for 10 min, and then incubated again in PBS containing 0.1M glycine for 10 min. This was followed by blocking for 30 min with 10% goat serum in PBS, incubation in primary and secondary antibody as described above, and mounting with Vectashield.

[3] = tested on: primary chicken embryonic connective tissue fibroblasts; test: Acridine orange/ethidium bromide staining for apoptotic cells; format: cell-based; settings: cCAF-treated fibroblasts
Procedure: Plates of fibroblasts treated with cCAF as described above were rinsed twice with PBS and incubated in 0.1 mg/ml acridine orange/ethidium bromide in PBS for 1 min. After rinsing twice with PBS and adding a cover slip, the cells were immediately viewed by epifluorescence microscopy and random fields were photographed. The number of cells with blebbing cytoplasm and fragmented nuclei were counted from the entire field of each photograph.

α-SMA mRNA = test: RT-PCR for α-SMA mRNA in fibroblasts; format: cell-based, chicken
Procedure: Total RNA for α-SMA was extracted using TRIzol reagent from untreated fibroblasts, fibroblasts treated with 750 ng/ml cCAF or fibroblasts treated for varying periods of time with cCAF. The RT-PCR procedure was performed using the Promega Access RT-PCR System, which is designed to finish reverse transcription (RT) and polymerase chain reaction (PCR) in one tube, and following the protocol recommended by Promega, except that 1.5 times the recommended amount of dNTP, reverse transcriptase and Tfl DNA polymerase were used to ensure strong synthesis of 18S ribosomal RNA. The reaction conditions included: 1 μg total RNA, first strand synthesis at 48° C. for 45 min, then 95° C. for 5 min to inactivate the reverse transcriptase, followed by DNA amplification at 95° C. for 45 sec, 58° C. for 60 sec, 68° C. for 90 sec for 40 cycles. Finally, 68° C. for 7 min to extent the strands. 2 μl of Quantum mRNA classic 18S primers (Ambion) were added to reaction to produce the control band. The followin primers used for the amplification of α-SMA: […]
RT-PCR products were analyzed by electrophoresis in 1.5% agarose and the density of the bands was measured by densitometry using Glyko BandScan.

B1: cCAF: CXC chemokine chicken Chemotactic and Angiogenic Factor, full-length, SEQ ID NO:2; purified or synthesized (protein)
chain: LSQGRTLVKMGNELRCQCISTHSKFIHPKSIQDVKLTPSGPHCKNVEIIATLKDGREVCLDPTAPWVQLIVKALMAKAQLNSDAPL
modifications: Gallusgallus
notes: purified or synthesized
α-SMA levels by immunoblot (α-SMA [1]): much higher levels of α-SMA; also recorded: increased levels of α-SMA | α-SMA immunolabeling of sections of fibroblast-seeded collagen gels (α-SMA [2]; versus control gels): more cells with fibers staining for α-SMA than control gels | α-SMA immunolabeling of cultured fibroblasts (α-SMA [2]; versus untreated control cells): more fibroblasts are stained for α-SMA; also recorded: many more cells showing intense staining for fiber bundles | apoptotic morphology (cytoplasmic blebbing, nuclear fragmentation) [3]: do not show the characteristics of apoptotic cells; also recorded: compact cytoplasm and an intact nucleus characteristic of healthy cells | time by which α-SMA mRNA drops below control levels (α-SMA mRNA; 750 ng/ml cCAF): ≤ 24 h | time to increase in α-SMA mRNA levels (α-SMA mRNA; 750 ng/ml cCAF): ≤ 1 h | time α-SMA mRNA levels remain elevated after treatment (α-SMA mRNA; 750 ng/ml cCAF): up to 12 hr | period with increasing amounts of α-SMA mRNA relative to control (α-SMA mRNA; after initiation of treatment, normalized to 18S rRNA): 1 to 12 h
